Experiments:
Recombinant human GM-CSF [1] = target: T1, Recombinant human GM-CSF (human, UniProt P04141 18-144, biotinylated for the SPR assay (sites not given)); assay: surface plasmon resonance analysis, monovalent affinity; format not described
T1 construct: Biotinylated and immobilized on a streptavidin CM5 sensor chip in the SPR assay; used in solution at 0.5 ng/ml in the TF-1 proliferation assay (the species is not restated there); also called hGM-CSF; Granulocyte Macrophage-Colony Stimulating Factor

Recombinant human GM-CSF [2] = target: T1, Recombinant human GM-CSF; assay: cell-based or functional assay

T1 sequence (P04141 18-144 limits assumed): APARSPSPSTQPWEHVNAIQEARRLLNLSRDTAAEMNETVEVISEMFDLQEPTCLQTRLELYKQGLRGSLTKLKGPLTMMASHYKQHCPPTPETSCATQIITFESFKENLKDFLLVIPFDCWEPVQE

Kd (Recombinant human GM-CSF [1]): ~10 pM
EC50 of inhibition of GM-CSF-dependent proliferation of a human TF-1 leukemia cell line (0.5 ng/ml GM-CSF) (Recombinant human GM-CSF [2]): 30 pM
B1: chimeric 19/2 antibody (antibody, V domains shown)
VH: EVQLQQSGPELVKPGASVKISCKASGYTFTDYNIHWVKQSHGKSLDWIGYIAPYSGGTGYNQEFKNRATLTVDKSSSTAYMELRSLTSDDSAVYYCARRDRFPYYFDYWGQGTTLRVSS
VL: DIVMIQSQKFVSTSVGDRVNITCKASQNVGSNVAWLQQKPGQSPKTLIYSASYRSGRVPDRFTGSGSGTDFILTITTVQSEDLAEYFCQQFNRSPLTFGSGTKLELK

Source: US20080171038A1 (KALOBIOS PHARMACEUTICALS, published 2008)
